Experimental data published in the nanobody polyreactivity screen of Harvey et al. (2022).

assay: yeast display, Sf9 membrane polyspecificity reagent, FACS + sequencing; frameworks hold sequencing errors
Outline: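 Nanobodies came from a synthetic yeast display library in Saccharomyces cerevisiae BJ5465, induced with galactose for 36–48 hours and stained for 1 hour at 4 °C with 10% biotinylated, detergent-solubilized Sf9 membrane reagent. Cells were enriched on streptavidin microbeads and then FACS-sorted, with low and high (top ~1%) gates set on anti-HA fluorescence for expression and streptavidin fluorescence for reagent binding. Each polyreactivity label reflects the gate a clone came from. Genes were amplified by colony PCR, sequenced by MiSeq 2 × 250 and filtered by CDR length.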

Sequence | polyreactivity (PSR sort gate)
QVQLVESGGGLVQAGGSLRLSCAASGYIFAGNAMGWYRQAPGKERELVAAINSDGRTYYADSVRGRFTISRDNAKNSVYLQMNSLKPEDTAVYYCAVVRFYLGDYLVEFDYWGQGTQVTVSS | low polyreactivity
QVQLVESGGGLVQAGGSLRLSCAASGYIFAPYAMGWYRQAPGKERELVAAISSGGSTYYADSVKGRFTISRDNAKNTVYLQKNSQKPEDPAVYYCAKRYIYSYYWGQGTQVTVSS | high polyreactivity
QVQLVESGGGLVQAGGSLRLSCAASGYIFCGYAMGWYRQAPGKERELVAAINRGGSTYYADSVKGRFTISRDNAKNTVYLQMNSLKPEDTAVYYCAARLLYYNSIKRYYWGQGTQVTVSS | high polyreactivity
QVQLVESGGGLVQAGGSLRLSCAASGYIFDDNAMGWYRQAPGKERELVATNYADSVKGRFTISRDNAKNTVYLQMNSLKPEDTAVYYCAKDVWQTYTDLDHWGQGTQVTVSS | low polyreactivity
QVQLVESGGGLVQAGGSLRLSCAASGYIFDNNAMGWYRQAPGKERELVAAINWSGGSTYYADSVKGRFTISRDNAKNTVYLQMNSLKPEDTAVYYCNKLIYGIYYPERYAYDYWGQGTQVTVSS | low polyreactivity
QVQLVESGGGLVQAGGSLRLSCAASGYIFDVYAMGWYRQAPGKERELVATISSGTGITKYADSVKGRFTISRDNAKNTVYLQMNSLKPEDTAVYYCAADYASLSWLGFYYWGQGTQVTVSS | low polyreactivity
QVQLVESGGGLVQAGGSLRLSCAASGYIFEYYAMGWYRQAPGKERELVAAISVGGGSTYYADSVKGRFTISRDNAKNTVYLQMNSLKPEDTAVYYCAAVQLYQKHQITYVAHEYWGQGTQVTVSS | low polyreactivity
QVQLVESGGGLVQAGGSLRLSCAASGYIFFANAMGWYRPAPGKERELVAAISSDGRTYYADSVKGRFTISRDNAKNTVYLQMNRLKPEDTAVYYCAAYFSGLTYGYYVAGYDYWGQGTQVTVSS | low polyreactivity
QVQLVESGGGLVQAGGSLRLSCAASGYIFFGNAMGWYRQAPGKERELVAAIRRRGTSTYYADSVKGRFTISRDNAKNTVYLQMNSLKPEDTAVYYCAADVVRSNFYGTFLYDYDYCGQGTQVTVSS | low polyreactivity
QVQLVESGGGLVQAGGSLRLSCAASGYIFFRNAMGWYRQAPGKEREFVAAIRFSGGNTYYADSVKGRFTISRDNAKNTVYLQMNSLKPEDTAFYYCAADKVRQGHYWTPMEYWGQGTQVTVSS | low polyreactivity
QVQLVESGGGLVQAGGSLRLSCAASGYIFGAYAMGWYRQAPGKERELVAGITASGDSTYYADSVKGRFTISRDNAKNTVYLQMNSLKPEDTAVYYCNAQPDIGLYDRQWKEPYEYWGQGTQVTVSS | low polyreactivity
QVQLVESGGGLVQAGGSLRLSCAASGYIFGGYAMGWYRQAPGKERELVAAISRSGGSTYYADSVKGRFTISRDNAKNTVYLQMNSLKPEDTAVYYCAVRGYTLRYGYWGQGTQVTVSS | high polyreactivity
QVQLVESGGGLVQAGGSLRLSCAASGYIFGNYAMGCYRQAPGKERELVAAISKSGVTTYYADSVKGRFTISRDNAKNTVYLQMNSLKPEDTAVYYCNARSWRPINARYNEYDYWGQGTQVTVSS | low polyreactivity
QVQLVESGGGLVQAGGSLRLSCAASGYIFGRNAMGWYRQAPGKEREFFAAISSSGSSTYYADSVKGRFTISRDKAKNTVYLQMNSLKPEDTAVYYCNADRLRSTHDYWGQGTQVTVSS | high polyreactivity
QVQLVESGGGLVQAGGSLRLSCAASGYIFGRYAMGWYRQAPGKERELVAAISSTGDSTYYADSVKGRFTISRDNAKNTVYLQMNSLKPEDTAVYYCNAVVRRYSYGRYYYWGQGTQVTVSS | high polyreactivity
QVQLVESGGGLVQAGGSLRLSCAASGYIFGYNAMGWYRQAPGKERELVAAINYSGTRTYYADSVKGRFTISRDNAKNTVYLQKNSLKPEDTAVYYCNAVGQLQYVSSDDYWGQGTQVTVSS | high polyreactivity
QVQLVESGGGLVQAGGSLRLSCAASGYIFGYNTMGWYRQAPGKERELVATINWRGSRTYYADSVKARFTISLDNAKNTVYLQMNSLKPEDTAVYYCNADHQFRSSVSGDHDYWGQGTQVTVSS | high polyreactivity
QVQLVESGGGLVQAGGSLRLSCAASGYIFIGYAMGWYRQAPGTERELVATITSGGSTNYADSVKGRFTISRDNAKNTVYLQMNSLNPEETAVYNCAAGRGRYCYSWRYLYAIFDYWGQGTQVTVSS | low polyreactivity
QVQLVESGGGLVQAGGSLRLSCAASGYIFIVNAMGSYRQAPGKERELVAAITDRGGSTYYADSVKGRFTISRDNAKNTVYLQMNSLKPEVTAVYYCAAELVHRLWYRDVHFDYWGQGTQVTVSS | low polyreactivity
QVQLVESGGGLVQAGGSLRLSCAASGYIFKHYAMGWYIQAPGKERELVAAITSGGRTNYADSVKGRFTISRDNAKNTVFLQMNSLIPEDTAVYYCAARRYRYFDGTVPLDYWGQGTLVTVSS | high polyreactivity
QVQLVESGGGLVQAGGSLRLSCAASGYIFKNYAMGWYRQAPGKERELVAAITRRGASTYYADSVKGRFTISRDNAKNTVYLQMNSLKPEDTAVYYCAAYPWPPGEYDYWGQGTQVTVSS | low polyreactivity
QVQLVESGGGLVQAGGSLRLSCAASGYIFKVNSMGWYRQAPGKERELVADISRNSGSTRYADSVKGRFTISRDNAKNTVYLQMNSLKPDDTAVYYFAADGRYWVKPGSPWDRSRYDYWGQGTQVTVSS | low polyreactivity

Sequence | polyreactivity (PSR sort gate)
QVQLVESGGGLVQAGGSLRLSCAASGYIFKYNAMGWYRQAPGKERELVAAISSGGSTYYADSVKGRFTISRDNAKNTVYLQMNSLKPEDTAVYYCAARGVRSARIYYYWGQGTQVTVSS | high polyreactivity
QVQLVESGGGLVQAGGSLRLSCAASGYIFKYYAMGWYRQAPGKERELVTAIRSNDDSTYYADSVKGRFTISRDTAKNTVYLQMNSLKPEDTAVYYCAAATYGTRLRRYYYWGQGTQVTVSS | high polyreactivity
QVQLVESGGGLVQAGGSLRLSCAASGYIFLAYAKGWYRQAPGKERELVADNTYADSVKGRFTISRDNAKNTVYLKMNSMKPEDTAVYYCNADEVYDEYSYDYWGHGTQVTVSS | low polyreactivity
QVQLVESGGGLVQAGGSLRLSCAASGYIFLGYDMVWYRQAPGKERELVAVINWSGGRTRYADSVKGRFTISRDNAKNTVYLQMNSLKPEDTAVYYCAAERSITYDYWGQGSQVTVSS | high polyreactivity
QVQLVESGGGLVQAGGSLRLSCAASGYIFLRNSLGWYRQAPGKERELVAAIRRTGGSTYYADSVKGRFTISRDNAKNTVYLQMNSLKPEDTAVYYCAKRSYTGYEYWGQGTQVTVSS | low polyreactivity
QVQLVESGGGLVQAGGSLRLSCAASGYIFNPNAMGWYRQAPGKERELVAAITWSGGNTYYADSVKGRFTISRDNAKNTVYLQMNSLKPEDTAVFYCNAEYRWPYWGQWYFKGYDYWGQGTQVTVSS | low polyreactivity
QVQLVESGGGLVQAGGSLRLSCAASGYIFNYAIGWYRQAPRKESELVAAITWDGSSTNYADSVKGRFTISRDNAKNTVYLQMKSLKPEDTAVYYCNARGRWTFNGFWFTYNYWGQGTQVTVSS | high polyreactivity
QVQLVESGGGLVQAGGSLRLSCAASGYIFPDYPMGWYRPATGKERELVAAFTSSGGRTYYADSVKGRFTISRDNAKNTVYLQMNSLKPEDTAVYYCAAVSVLKKTFDYWGQGTQVTVSS | high polyreactivity
QVQLVESGGGLVQAGGSLRLSCAASGYIFPPYAMGWYRQAPGKERELVATMTGIGGSTDYADSVKGRFTISRDNAKNTVYLQMNSLKPEDTAVYYCAARRDGYGTHYDYWGQGTQVTVSS | low polyreactivity
QVQLVESGGGLVQAGGSLRLSCAASGYIFPYYPMGWYRQAPGKQRELVAAISRSGGGTYYADSVKGRFTISRDIANNTVYLQMNSLKPEDTALYYCNRRSGHVHEYDYWGQGTQVTVSS | low polyreactivity
QVQLVESGGGLVQAGGSLRLSCAASGYIFQDYAMGWYRPAPGKERELVAAITSGGSTYYADSVKGRFTISRDNAKNTVYLQMNSLKPEDTAVYYCAAVGYYSVPGYSSRRYYYWGQGTQVTVSS | high polyreactivity
QVQLVESGGGLVQAGGSLRLSCAASGYIFQRYTMGWYRQAPGKERELVAAITRSGGRTYYADSVKGRFTISRDNAKNTVYLQMNSLKPEDTAVYYCAVDYRTRGDYWGQGTQVTVSS | high polyreactivity
QVQLVESGGGLVQAGGSLRLSCAASGYIFQTYAMGWYRQAPGKEREFVAAITSGAGRTSYADSVKGRFTISRDNAKNTVYLQMNSLKPEDTAVYYCAARWRYQLSGSRLSYGKYDYWGQGTQVTVSS | high polyreactivity
QVQLVESGGGLVQAGGSLRLSCAASGYIFQYYAKGWYRQAPGKERELVAAITGGGSTKYADSVKGRFTISRDNAKHTVYLQMNSLKPEDTAVYYCAKRYPSWFNYWGQGTQVTVSS | high polyreactivity
QVQLVESGGGLVQAGGSLRLSCAASGYIFRFNAMGWYRQAPGKERELVAAISRSGGRTYYADSVKGRFTISRDNAKNTVYLQMNSLKPEDTAVYYCAAVRYKGGGNQPYGYWGQGTQVTVSS | high polyreactivity
QVQLVESGGGLVQAGGSLRLSCAASGYIFRFNAMGWYRQAPGKERELVAVITSGARTYYADSVKGRFTISRDNAKNTFYLLMNSLKPEDTAVYYCNAGARRYLYDYWGQGTQVTVSS | low polyreactivity
QVQLVESGGGLVQAGGSLRLSCAASGYIFRGYVMGWYRQAPGKERELVAAITSRGDSTYYADSVKGRFTISRDNAKNTVYLQMNSLKPEDTAVYYCNAVHYYVEYDYWGQGTQVTVSS | high polyreactivity
QVQLVESGGGLVQAGGSLRLSCAASGYIFRRYAMGWYRQAPGKERELVAAISFSGGSTYYADSVKGRFTISRDNAKNTVYLQMNSLKPEDTAVYYCAALSLLRYDYWGQGTQVTVSS | high polyreactivity
QVQLVESGGGLVQAGGSLRLSCAASGYIFRSYVMGWYRQAPGKERELVAAISVSGGRTYYADSVKGRFTMSRDNAKNTVYLQMNSLIPEDTAVYYCAAYLGRRGQEMDYWGQGTQVTVSS | high polyreactivity
QVQLVESGGGLVQAGGSLRLSCAASGYIFRYYAMGWYREAPGKERELVARINSGGSTYADSVKGRFTISRDNAKNTVYLQMNSLKPEDTAVYYCAADLAKYRSKLGYWGQVTQVTVSS | high polyreactivity
QVQLVESGGGLVQAGGSLRLSCAASGYIFRYYAMGWYRQAPGKERELVAAISRSGGNTYYADSVKGRFTISRDNAKNTVYLQMNSLKPEDTAVYYCAVVLSTYSYADYDYWGQGTQVTVSS | high polyreactivity
